Measurements: patent US20160185832A1 (University of Pennsylvania, published 2016)
Blank lines part the entries; values can stand above or below the binder they belong to.

Experiments:
[1] = target: T1, pure, pre-polymerized, taxol-stabilized microtubules of bovine tubulin (Cytoskeleton) (bovine, UniProt P81947 1-451; Q6B856 1-445, limits assumed); experiment: in vitro microtubule co-sedimentation of in vitro translated GFP fusions, western blot
T1 construct: Polymer of alpha/beta tubulin dimers, polymerized with GTP and stabilized with 10 µM taxol; also called MT; MTs
T1 sequence (P81947 whole entry, chain 1 of 2, the tested form may be a part): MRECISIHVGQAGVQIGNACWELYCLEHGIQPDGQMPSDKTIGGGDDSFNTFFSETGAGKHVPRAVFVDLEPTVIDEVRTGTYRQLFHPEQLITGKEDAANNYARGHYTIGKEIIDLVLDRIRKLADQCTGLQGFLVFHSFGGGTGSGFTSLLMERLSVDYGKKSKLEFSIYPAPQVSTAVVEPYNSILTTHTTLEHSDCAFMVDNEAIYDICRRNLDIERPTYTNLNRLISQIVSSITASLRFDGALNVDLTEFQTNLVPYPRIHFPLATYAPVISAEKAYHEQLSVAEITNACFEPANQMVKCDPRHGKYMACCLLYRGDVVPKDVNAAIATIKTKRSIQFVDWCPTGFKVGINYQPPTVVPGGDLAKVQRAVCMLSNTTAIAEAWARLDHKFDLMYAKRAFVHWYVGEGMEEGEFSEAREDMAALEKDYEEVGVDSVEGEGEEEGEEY
T1 sequence (Q6B856 whole entry, chain 2 of 2, the tested form may be a part): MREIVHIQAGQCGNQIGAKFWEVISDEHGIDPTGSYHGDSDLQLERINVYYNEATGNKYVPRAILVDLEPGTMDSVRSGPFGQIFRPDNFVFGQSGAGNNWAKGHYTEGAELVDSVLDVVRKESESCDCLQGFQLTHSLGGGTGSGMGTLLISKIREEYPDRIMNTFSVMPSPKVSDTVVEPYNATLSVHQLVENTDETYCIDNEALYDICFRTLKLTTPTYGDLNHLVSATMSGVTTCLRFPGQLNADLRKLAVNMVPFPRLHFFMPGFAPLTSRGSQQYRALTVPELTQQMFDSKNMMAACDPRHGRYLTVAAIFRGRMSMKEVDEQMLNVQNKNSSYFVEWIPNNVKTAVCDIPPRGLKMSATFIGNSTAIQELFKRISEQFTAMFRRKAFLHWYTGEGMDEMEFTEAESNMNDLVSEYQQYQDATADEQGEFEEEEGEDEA
Method: (§1) Crude TNT T7 reaction products were diluted 1:1 in BRB80 supplemented with 1 mM GTP and 10 μM taxol. The diluted products were then incubated at 30° C. for 30 minutes in either the presence or absence of pure, pre-polymerized microtubules. Reactions were then centrifuged through a 40% sucrose cushion at 48,000×g for 30 minutes, the supernatant was collected, and the pellet washed once with warm BRB80 and resuspended in 1×SDS PAGE sample buffer. Both fractions were subjected to SDS-PAGE and transferred to nitrocellulose. The presence of tubulin in the pellets was confirmed by Ponceau staining, and GFP-tagged CEP290 constructs were detected by immunoblotting.

[2] = target: T1, pure, pre-polymerized, taxol-stabilized …; experiment: microtubule co-sedimentation, 1 nM purified 6×His truncation M with increasing microtubules, Coomassie gel, non-linear regression
Method: For the direct microtubule binding assay, 1 nM of recombinantly expressed and purified 6×His tagged CEP290 truncation M was incubated at 30° C. for 30 minutes with increasing amounts of pure, prepolymerized microtubules. Reactions were centrifuged and subjected to SDS-PAGE as above, and tubulin and CEP290 truncation M were detected by Coomassie blue staining.

[3] = target: T1, pure, pre-polymerized, taxol-stabilized …; experiment: in vitro microtubule co-sedimentation, percent of construct in the microtubule pellet (FIG. 4D)
Method: as §1

[4] = target: microtubule network of cultured human cells (hTERT-RPE1, 293T) (human, UniProt P68363 1-451; P07437 1-444); experiment: cell-based or functional assay
Sequence of microtubule network of cultured human cells (hTERT-RPE1, 293T) (P68363 whole entry, chain 1 of 2): as the sequence (P81947 whole entry, chain 1 of 2, the tested form may be a part) above
Sequence of microtubule network of cultured human cells (hTERT-RPE1, 293T) (P07437 whole entry, chain 2 of 2): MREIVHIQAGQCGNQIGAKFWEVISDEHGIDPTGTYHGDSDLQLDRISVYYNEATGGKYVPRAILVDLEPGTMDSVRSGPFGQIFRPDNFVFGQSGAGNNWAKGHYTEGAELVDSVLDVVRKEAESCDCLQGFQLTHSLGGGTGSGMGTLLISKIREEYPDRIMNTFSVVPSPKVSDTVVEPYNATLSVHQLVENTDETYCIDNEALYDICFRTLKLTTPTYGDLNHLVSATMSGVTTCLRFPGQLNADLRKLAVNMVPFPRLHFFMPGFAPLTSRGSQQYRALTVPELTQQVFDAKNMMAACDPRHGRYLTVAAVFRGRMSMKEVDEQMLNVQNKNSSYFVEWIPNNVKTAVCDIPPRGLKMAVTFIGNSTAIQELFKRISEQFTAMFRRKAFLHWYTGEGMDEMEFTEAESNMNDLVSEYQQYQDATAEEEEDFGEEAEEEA

B2: 6×His tagged CEP290 truncation M (aa 1695-1966), recombinantly expressed and purified (other)
chain: DQSQKESQCLKSELQAQKEANSRAPTTTMRNLVERLKSQLALKEKQQKALSRALLELRAEMTAAAEERIISATSQKEAHLNVQQIVDRHTRELKTQVEDLNENLLKLKEALKTSKNRENSLTDNLNDLNNELQKKQKAYNKILREKEEIDQENDELKRQIKRLTSGLQGKPLTDNKQSLIEELQRKVKKLENQLEGKVEEVDLKPMKEKNAKEELIRWEEGKKWQAKIEGIRNKLKEKEGEVFTLTKQLNTLKDLFAKADKEKLTLQRKLKT
notes: Expressed in E. coli BL21(DE3)pLysS, purified on Ni-NTA; also called region M; CEP290 region M; not shown: N-terminal 6×His tag from pDest-527
- Kd [2]: ~100 nM

B3: GFP fusion of CEP290 aa 580-2479 (other)
chain: TENISQGDRISERKLDLLSLKNMSEAQSKNEFLSRELIEKERDLERSRTVIAKFQNKLKELVEENKQLEEGMKEILQAIKEMQKDPDVKGGETSLIIPSLERLVNAIESKNAEGIFDASLHLKAQVDQLTGRNEELRQELRESRKEAINYSQQLAKANLKIDHLEKETSLLRQSEGSNVVFKGIDLPDGIAPSSASIINSQNEYLIHLLQELENKEKKLKNLEDSLEDYNRKFAVIRHQQSLLYKEYLSEKETWKTESKTIKEEKRKLEDQVQQDAIKVKEYNNLLNALQMDSDEMKKILAENSRKITVLQVNEKSLIRQYTTLVELERQLRKENEKQKNELLSMEAEVCEKIGCLQRFKEMAIFKIAALQKVVDNSVSLSELELANKQYNELTAKYRDILQKDNMLVQRTSNLEHLECENISLKEQVESINKELEITKEKLHTIEQAWEQETKLGNESSMDKAKKSITNSDIVSISKKITMLEMKELNERQRAEHCQKMYEHLRTSLKQMEERNFELETKFAELTKINLDAQKVEQMLRDELADSVSKAVSDADRQRILELEKNEMELKVEVSKLREISDIARRQVEILNAQQQSRDKEVESLRMQLLDYQAQSDEKSLIAKLHQHNVSLQLSEATALGKLESITSKLQKMEAYNLRLEQKLDEKEQALYYARLEGRNRAKHLRQTIQSLRRQFSGALPLAQQEKFSKTMIQLQNDKLKIMQEMKNSQQEHRNMENKTLEMELKLKGLEELISTLKDTKGAQKVINWHMKIEELRLQELKLNRELVKDKEEIKYLNNIISEYERTISSLEEEIVQQNKFHEERQMAWDQREVDLERQLDIFDRQQNEILNAAQKFEEATGSIPDPSLPLPNQLEIALRKIKENIRIILETRATCKSLEEKLKEKESALRLAEQNILSRDKVINELRLRLPATAEREKLIAELGRKEMEPKSHHTLKIAHQTIANMQARLNQKEEVLKKYQRLLEKAREEQREIVKKHEEDLHILHHRLELQADSSLNKFKQTAWDLMKQSPTPVPTNKHFIRLAEMEQTVAEQDDSLSSLLVKLKKVSQDLERQREITELKVKEFENIKLQLQENHEDEVKKVKAEVEDLKYLLDQSQKESQCLKSELQAQKEANSRAPTTTMRNLVERLKSQLALKEKQQKALSRALLELRAEMTAAAEERIISATSQKEAHLNVQQIVDRHTRELKTQVEDLNENLLKLKEALKTSKNRENSLTDNLNDLNNELQKKQKAYNKILREKEEIDQENDELKRQIKRLTSGLQGKPLTDNKQSLIEELQRKVKKLENQLEGKVEEVDLKPMKEKNAKEELIRWEEGKKWQAKIEGIRNKLKEKEGEVFTLTKQLNTLKDLFAKADKEKLTLQRKLKTTGMTVDQVLGIRALESEKELEELKKRNLDLENDILYMRAHQALPRDSVVEDLHLQNRYLQEKLHALEKQFSKDTYSKPSISGIESDDHCQREQELQKENLKLSSENIELKFQLEQANKDLPRLKNQVRDLKEMCEFLKKEKAEVQRKLGHVRGSGRSGKTIPELEKTIGLMKKVVEKVQRENEQLKKASGILTSEKMANIEQENEKLKAELEKLKAHLGHQLSMHYESKTKGTEKIIAENERLRKELKKETDAAEKLRIAKNNLEILNEKMTVQLEETGKRLQFAESRGPQLEGADSKSWKSIVVTRMYETKLKELETDIAKKNQSITDLKQLVKEATEREQKVNKYNEDLEQQIKILKHVPEGAETEQGLKRELQVLRLANHQLDKEKAELIHQIEANKDQSGAESTIPDADQLKEKIKDLETQLKMSDLEKQHLKEEIKKLKKELENFDPSFFEEIEDLKYNYKEEVKKNILLEEKVKKLSEQLGVELTSPVAASEEFEDEEESPVNFPIY
notes: The text says only 'lacking the N-terminus'; also called truncation lacking the N-terminus; C-terminal fragment of CEP290 (aa 580 to 2479); not shown: N-terminal GFP tag from pcDNA-DEST53 (Gateway)
- percent associated with microtubules [3]: < 50%
- percent of transfected cells with increased microtubule acetylation and bundling [4]: ~40%
- percent of transfected hTERT-RPE1 cells with a fibrillar localization pattern [4]: ~20%

Now from value to binder:

- binding result [1]: no binding
B1: GFP-tagged "Deleted" CEP290 truncation (part of the microtubule binding region deleted in the rd16 mouse) (other)
chain: DQSQKESQCLKSELQAQKEANSRAPTTTMRNLVERLKSQLALKEKQQKALSRALLELRAEMTAAAEERIISATSQKEAHLNVQQIVDRHTRELKTQVEDLNENLLKLKEALKTSKNRENSLTDNLNDLNNELQKKQKAYNKILREKEEIDQENDELKRQIKRLTSGLQGKPLTDNKQSLIEELQRKVKKLENQLEGKVEEVDLKPMKEK
notes: not shown: N-terminal GFP tag from pcDNA-DEST53 (Gateway)

- percent associated with microtubules [3]: < 50%
- percent of transfected cells with increased microtubule acetylation and bundling [4]: ~40%
- percent of transfected hTERT-RPE1 cells with a fibrillar localization pattern [4]: ~60%
B4: GFP fusion of CEP290 aa 1-1966 (other)
chain: MPPNINWKEIMKVDPDDLPRQEELADNLLISLSKVEVNELKSEKQENVIHLFRITQSLMKMKAQEVELALEEVEKAGEEQAKFENQLKTKVMKLENELEMAQQSAGGRDTRFLRNEICQLEKQLEQKDRELEDMEKELEKEKKVNEQLALRNEEAENENSKLRRENKRLKKKNEQLCQDIIDYQKQIDSQKETLLSRRGEDSDYRSQLSKKNYELIQYLDEIQTLTEANEKIEVQNQEMRKNLEESVQEMEKMTDEYNRMKAIVHQTDNVIDQLKKENDHYQLQVQELTDLLKSKNEEDDPIMVAVNAKVEEWKLILSSKDDEIIEYQQMLHNLREKLKNAQLDADKSNVMALQQGIQERDSQIKMLTEQVEQYTKEMEKNTCIIEDLKNELQRNKGASTLSQQTHMKIQSTLDILKEKTKEAERTAELAEADAREKDKELVEALKRLKDYESGVYGLEDAVVEIKNCKNQIKIRDREIEILTKEINKLELKISDFLDENEALRERVGLEPKTMIDLTEFRNSKHLKQQQYRAENQILLKEIESLEEERLDLKKKIRQMAQERGKRSATSGLTTEDLNLTENISQGDRISERKLDLLSLKNMSEAQSKNEFLSRELIEKERDLERSRTVIAKFQNKLKELVEENKQLEEGMKEILQAIKEMQKDPDVKGGETSLIIPSLERLVNAIESKNAEGIFDASLHLKAQVDQLTGRNEELRQELRESRKEAINYSQQLAKANLKIDHLEKETSLLRQSEGSNVVFKGIDLPDGIAPSSASIINSQNEYLIHLLQELENKEKKLKNLEDSLEDYNRKFAVIRHQQSLLYKEYLSEKETWKTESKTIKEEKRKLEDQVQQDAIKVKEYNNLLNALQMDSDEMKKILAENSRKITVLQVNEKSLIRQYTTLVELERQLRKENEKQKNELLSMEAEVCEKIGCLQRFKEMAIFKIAALQKVVDNSVSLSELELANKQYNELTAKYRDILQKDNMLVQRTSNLEHLECENISLKEQVESINKELEITKEKLHTIEQAWEQETKLGNESSMDKAKKSITNSDIVSISKKITMLEMKELNERQRAEHCQKMYEHLRTSLKQMEERNFELETKFAELTKINLDAQKVEQMLRDELADSVSKAVSDADRQRILELEKNEMELKVEVSKLREISDIARRQVEILNAQQQSRDKEVESLRMQLLDYQAQSDEKSLIAKLHQHNVSLQLSEATALGKLESITSKLQKMEAYNLRLEQKLDEKEQALYYARLEGRNRAKHLRQTIQSLRRQFSGALPLAQQEKFSKTMIQLQNDKLKIMQEMKNSQQEHRNMENKTLEMELKLKGLEELISTLKDTKGAQKVINWHMKIEELRLQELKLNRELVKDKEEIKYLNNIISEYERTISSLEEEIVQQNKFHEERQMAWDQREVDLERQLDIFDRQQNEILNAAQKFEEATGSIPDPSLPLPNQLEIALRKIKENIRIILETRATCKSLEEKLKEKESALRLAEQNILSRDKVINELRLRLPATAEREKLIAELGRKEMEPKSHHTLKIAHQTIANMQARLNQKEEVLKKYQRLLEKAREEQREIVKKHEEDLHILHHRLELQADSSLNKFKQTAWDLMKQSPTPVPTNKHFIRLAEMEQTVAEQDDSLSSLLVKLKKVSQDLERQREITELKVKEFENIKLQLQENHEDEVKKVKAEVEDLKYLLDQSQKESQCLKSELQAQKEANSRAPTTTMRNLVERLKSQLALKEKQQKALSRALLELRAEMTAAAEERIISATSQKEAHLNVQQIVDRHTRELKTQVEDLNENLLKLKEALKTSKNRENSLTDNLNDLNNELQKKQKAYNKILREKEEIDQENDELKRQIKRLTSGLQGKPLTDNKQSLIEELQRKVKKLENQLEGKVEEVDLKPMKEKNAKEELIRWEEGKKWQAKIEGIRNKLKEKEGEVFTLTKQLNTLKDLFAKADKEKLTLQRKLKT
notes: The text says only 'lacking the C-terminus'; also called truncation lacking the C-terminus; not shown: N-terminal GFP tag from pcDNA-DEST53 (Gateway)
